Test results taken from article PMC7536154, “Biochemical characterization of ferric uptake regulator (Fur) from Aliivibrio salmonicida. Mapping the DNA sequence specificity through binding studies and structural modelling”.

T1: AsFur (ferric uptake regulator) (Aliivibrio salmonicida, UniProt Q7AUU7 1-147)
T1 sequence: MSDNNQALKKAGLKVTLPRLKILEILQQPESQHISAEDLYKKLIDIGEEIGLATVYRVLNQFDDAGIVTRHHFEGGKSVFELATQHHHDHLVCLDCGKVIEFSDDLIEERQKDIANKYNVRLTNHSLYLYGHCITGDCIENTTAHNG


What was measured:
[1] = molecular target: Ferric uptake regulator (Fur) from Aliivibrio salmonicida (Aliivibrio salmonicida); assay: SEC; Superdex 200 16/60; 300 mM NaCl, 50 mM Tris-HCl, 5 mM beta-mercaptoethanol, pH 7.5; second purification step after IMAC
[2] = molecular target: T1, AsFur (ferric uptake regulator); assay: EMSA; Mn2+ (100 uM MnCl2); EMSA: 20 mM Tris acetate pH 8.0, 1 mM MgCl2, 50 mM KCl, 1 mM DTT, 100 uM MnCl2, RT, 5 uM DNA, 0-80 uM AsFur, gel at 6 C; protection assay: 100 mM BisTrisPropane pH 7.5, 100 mM KCl, 5 mM MgSO4, 20 uM AsFur, 10 nM plasmid, RT then HinfI 37 C; settings: protein: recombinant; tags: none stated (pDEST14; histidine-rich protein purified by IMAC); chain copies: 2; blunt

Row | Molecule | stoichiometry N [1] | binding result [2]
1 | Ferric uptake regulator (Fur) from Aliivibrio salmonicida (natural protein) | 2 | 
2 | Vibrio consensus Fur box (dsDNA) DNA 1: AATGATAATAATTATCATT DNA 2: AATGATAATTATTATCATT |  | binds
3 | Vibrio anti-consensus (least conserved) (dsDNA) DNA 1: CCGTGCGCACTCCGCAGGG DNA 2: CCCTGCGGAGTGCGCACGG |  | no binding
